Reference: PMC5127644, “SPRTN is a mammalian DNA-binding metalloprotease that resolves DNA-protein crosslinks”

T1: SPRTN full length (Homo sapiens, UniProt Q9H040 1-489)
T1 sequence: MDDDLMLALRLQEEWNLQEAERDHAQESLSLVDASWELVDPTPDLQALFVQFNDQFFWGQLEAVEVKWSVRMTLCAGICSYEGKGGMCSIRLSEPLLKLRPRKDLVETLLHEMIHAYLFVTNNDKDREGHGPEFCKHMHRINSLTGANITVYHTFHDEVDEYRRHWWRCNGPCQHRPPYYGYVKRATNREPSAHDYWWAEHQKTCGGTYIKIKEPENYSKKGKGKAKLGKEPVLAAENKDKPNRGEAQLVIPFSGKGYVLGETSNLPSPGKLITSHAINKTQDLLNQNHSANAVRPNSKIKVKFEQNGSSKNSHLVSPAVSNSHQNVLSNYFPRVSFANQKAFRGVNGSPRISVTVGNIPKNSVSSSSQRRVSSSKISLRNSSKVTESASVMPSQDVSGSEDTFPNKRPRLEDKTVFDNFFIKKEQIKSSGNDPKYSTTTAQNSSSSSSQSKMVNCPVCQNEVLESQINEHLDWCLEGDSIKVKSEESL

T2: SPRTN-∆C (a.a. 1-216) (Homo sapiens, UniProt Q9H040 1-216)
T2 sequence: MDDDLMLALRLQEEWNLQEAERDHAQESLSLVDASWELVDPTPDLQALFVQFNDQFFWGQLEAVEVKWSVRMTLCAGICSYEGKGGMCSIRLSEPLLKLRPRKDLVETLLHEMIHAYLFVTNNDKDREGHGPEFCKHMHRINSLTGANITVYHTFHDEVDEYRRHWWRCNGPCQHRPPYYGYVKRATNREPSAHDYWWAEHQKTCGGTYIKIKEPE

B1: 6-FAM-dsODN 39-mer (dsDNA)
DNA 1: GCGCGCCCATTGATACTAAATTCAAGGATGACTTATTTC
DNA 2: GAAATAAGTCATCCTTGAATTTAGTATCAATGGGCGCGC

How the values were obtained:
SPRTN full length = molecular target: T1, SPRTN full length; assay: EMSA; 5 uM ZnSO4; EMSA: 10 mM Tris-HCl pH 7.5, 0.2 mM DTT, 5 uM ZnSO4, 0.25 uM DNA, 30 uL, 30 min at 20 C, 1.5% agarose gel; details: protein: recombinant, tags: Z-basic-His tag, TEV-cleaved (E. coli, pNIC-ZB)
SPRTN-∆C (a.a. 1-216) = molecular target: T2, SPRTN-∆C (a.a. 1-216); assay: as above; details: protein: recombinant, tags: His tag (pNIC28-Bsa4), TEV-cleaved (E. coli)
[1] = label: 6-FAM (5' as drawn), single strand
[2] = label: 6-FAM on strand 1, blunt

Binder | binding result (SPRTN full length; [1]) | binding result (SPRTN-∆C (a.a. 1-216); [1]) | binding result (SPRTN full length; [2]) | binding result (SPRTN-∆C (a.a. 1-216); [2])
GCGCGCCCATTGATACTAAATTCAAGGATGACTTATTTC (ssDNA) [6-FAM-ssODN 39-mer] | binds | no binding | – | –
B1 | – | – | binds | no binding
